Values joined by “and” are separate entries in the source; they are usually repeats but may differ in a detail not shown here. Equal entries are not always repeated.
Legend:
Assay in all cases: cell-based or functional assay
[1] = biological target: T1, SARS-CoV-2 S protein (C-terminally truncated, on pseudotyped virus) (SARS-CoV-2 (Wuhan-Hu-1), UniProt P0DTC2 14-1254)
[2] = biological target: T1, SARS-CoV-2 S protein (C-terminally …); remark: listed apart in the source
[3] = biological target: SARS-CoV-2 S protein R683G (on pseudotyped virus) (SARS-CoV-2, UniProt P0DTC2 14-1254)
[4] = biological target: SARS-CoV-2 S protein K417N (on pseudotyped virus) (SARS-CoV-2, UniProt P0DTC2 14-1254)
[5] = biological target: SARS-CoV-2 S protein E484K (on pseudotyped virus) (SARS-CoV-2, UniProt P0DTC2 14-1254)
[6] = biological target: SARS-CoV-2 S protein N501Y (on pseudotyped virus) (SARS-CoV-2, UniProt P0DTC2 14-1254)
[7] = biological target: SARS-CoV-2 S protein K417N + E484K + N501Y (on pseudotyped virus) (SARS-CoV-2, UniProt P0DTC2 14-1254)

Binder | IC50 (pseudovirus neutralization) [1] | IC90 (pseudovirus neutralization) [1] | IC50 (variant pseudovirus neutralization) [2] [nM] | IC50 (variant pseudovirus neutralization) [3] [nM] | IC50 (variant pseudovirus neutralization) [4] [nM] | IC50 (variant pseudovirus neutralization) [5] [nM] | IC50 (variant pseudovirus neutralization) [6] [nM] | IC50 (variant pseudovirus neutralization) [7] [nM]
Nb15-tri-IgG1 (Fc fusion) QVQLQESGGGLVQAGGSLRVSCAASGLPFSDYLMGWFRQAPGKEREYVAAISQNGGHTYADSVLGRFTISRDNAKNTVYLQMNMLTPGDTAVYSCAARRPGGGRWDAAHDYNYWGQGTQVTVSSGGGGSGGGGSGGGGSQVQLQESGGGLVQAGGSLRVSCAASGLPFSDYLMGWFRQAPGKEREYVAAISQNGGHTYADSVLGRFTISRDNAKNTVYLQMNMLTPGDTAVYSCAARRPGGGRWDAAHDYNYWGQGTQVTVSSGGGGSGGGGSGGGGSQVQLQESGGGLVQAGGSLRVSCAASGLPFSDYLMGWFRQAPGKEREYVAAISQNGGHTYADSVLGRFTISRDNAKNTVYLQMNMLTPGDTAVYSCAARRPGGGRWDAAHDYNYWGQGTQVTVSSDKTHTCPPCPAPELLGGPSVFLFPPKPKDTLMISRTPEVTCVWDVSHEDPEVKFNWYVDGVEVHNAKTKPREEQYNSTYRWSVLTVLHQDWLNGKEYKCKVSNKALPAPIEKTISKAKGQPREPQVYTLPPSREEMTKNQVSLTCLVKGFYPSDIAVEWESNGQPENNYKTTPPVLDSDGSFFLYSKLTVDKSRWQQGNVFSCSVMHEALHNHYTQKSLSLSPGKHHHHHH | 10 ng/ml and 142 nM | 26.9 ng/ml and 381 nM | 0.073 | 0.013 | 0.027 | 0.041 | 0.021 | 0.03
Nb17-tri-IgG1 (Fc fusion) QVQLQESGGGLVQTGGSLRLSCAASGRTFGIYRMGWFRQAPGKEREFVAAITSSADTAQYRDSVKGRFAISRDNAKNTLYLQMNSLKPEDTAIYYCAARDPTTLEYGNWGQGTQVTVSSGGGGSGGGGSGGGGSQVQLQESGGGLVQTGGSLRLSCAASGRTFGIYRMGWFRQAPGKEREFVAAITSSADTAQYRDSVKGRFAISRDNAKNTLYLQMNSLKPEDTAIYYCAARDPTTLEYGNWGQGTQVTVSSGGGGSGGGGSGGGGSQVQLQESGGGLVQTGGSLRLSCAASGRTFGIYRMGWFRQAPGKEREFVAAITSSADTAQYRDSVKGRFAISRDNAKNTLYLQMNSLKPEDTAIYYCAARDPTTLEYGNWGQGTQVTVSSDKTHTCPPCPAPELLGGPSVFLFPPKPKDTLMISRTPEVTCVWDVSHEDPEVKFNWYVDGVEVHNAKTKPREEQYNSTYRWSVLTVLHQDWLNGKEYKCKVSNKALPAPIEKTISKAKGQPREPQVYTLPPSREEMTKNQVSLTCLVKGFYPSDIAVEWESNGQPENNYKTTPPVLDSDGSFFLYSKLTVDKSRWQQGNVFSCSVMHEALHNHYTQKSLSLSPGKHHHHHH | 1.24 ng/ml and 18 nM | 4.7 ng/ml and 68.2 nM | 0.015 | 0.004 | 0.008 | 50 | 0.01 | 47.4

From US20240132577A1 (US Dept. of Health and Human Services, published 2024)
